Test results reported in patent US20150284465A1 (Chugai, published 2015).
Like-named read-outs stand apart in the source and are kept apart here. Values belong to the binder of their own block, whether it stands above or below them.

How the values were obtained:
[1] = target: T1, human-derived Fcγ receptor IIb (Recombinant Human FcRIIB/C, R&D systems) (human, UniProt P31994 46-217, limits assumed); test: SPR (Biacore T100), FcγRIIb immobilized on CM5, antibody as analyte at 200 µg/ml, 25 C
T1 construct: Bought recombinant protein, construct not described; also called FcγRIIb
T1 sequence (looked up): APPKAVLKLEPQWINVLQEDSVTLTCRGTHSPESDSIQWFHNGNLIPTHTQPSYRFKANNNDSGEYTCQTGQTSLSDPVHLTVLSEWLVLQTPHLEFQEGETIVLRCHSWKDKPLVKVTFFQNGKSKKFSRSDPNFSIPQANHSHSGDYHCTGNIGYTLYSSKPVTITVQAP
Protocol: The FcγRIIb binding was assessed by the procedure described below. […] The amounts of bound antibody were compared. […] FcγRIIb was immobilized onto the sensor chip CM5 (Biacore) by the amine coupling method. The final amount of immobilized FcγRIIb was about 4,300 RU. Then, the running buffer was injected until the baseline was stabilized. The measurement was carried out after the baseline was stabilized. […] The running buffer used was HBS-EP+ (10 mM HEPES, 0.15M NaCl, 3 mM EDTA, 0.05% v/v Surfactant P20), and the flow rate was 20 μl/min. The measurement temperature was 25° C. The concentration of each IgG or modified form thereof was adjusted to 200 μg/ml. 20 μl of an analyte was injected and allowed to interact with the immobilized FcγRIIb. After interaction, the analyte was dissociated from FcγRIIb and the sensor chip was regenerated by injecting 200 μl of the running buffer. […] This series of injection was repeated twice.

[2] = target: T2, hFcγRIIIaV-His6 (human-derived Fcγ receptor IIIa, Val) (human, UniProt P08637 17-208, limits assumed); test: SPR (Biacore T100), hFcγRIIIaV-His6 immobilized on CM5, antibody as analyte at 250 µg/ml
T2 construct: also called FcγRIIIa (Val); not shown: His6 tag
Protocol: The FcγRIIIa binding was assessed by the procedure described below. […] The amounts of bound antibody were compared. […] FcγRIIIa was immobilized onto the sensor chip CM5 (Biacore) by the amine coupling method. […] The running buffer used was HBS-EP+, and the flow rate was 5 μl/min. The sample concentration was adjusted to 250 μg/ml using HBS-EP+. The analysis included two steps: two minutes of association phase where 10 μl of an antibody solution was injected and the subsequent four minutes of dissociation phase where the injection was switched with HBS-EP+. After the dissociation phase, the sensor chip was regenerated by injecting 20 μl of 5 mM hydrochloric acid. The association, dissociation, and regeneration constitute one analysis cycle. Various antibody solutions were injected to obtain sensorgrams. […] 1999 August; 29(8):2613-24.

[3] = target: T3, soluble human FcRn (complex of FcRn and β2-microglobulin) (human, UniProt P55899 24-290; P16213 21-119); test: SPR (Biacore 3000), antibody captured on Protein L or anti-human kappa chain antibody, human FcRn as analyte, pH 6.0, steady state affinity
T3 construct: also called hFcRn; copies: 1 + 1
Protocol: (§1) The binding to human FcRn was assessed using Biacore 3000. An antibody was bound to Protein L or rabbit anti-human IgG Kappa chain antibody immobilized onto a sensor chip, human FcRn was added as an analyte for interaction with the antibody, and the affinity (KD) was calculated from the amount of bound human FcRn. Specifically, Protein L or rabbit anti-human IgG Kappa chain antibody was immobilized onto sensor chip CM5 (Biacore) by the amine coupling method using 50 mM Na-phosphate buffer (pH 6.0) containing 150 mM NaCl as the running buffer. Then, an antibody was diluted with a running buffer containing 0.02% Tween20, and injected to be bound to the chip. Human FcRn was then injected and the binding activity of the human FcRn to antibody was assessed.
(§2) The affinity was computed using BlAevaluation Software. The obtained sensorgram was used to calculate the amount of hFcRn bound to the antibody immediately before the end of human FcRn injection. The affinity of the antibody for human FcRn was calculated by fitting with the steady state affinity method.

[4] = target: T4, soluble GPC3 core polypeptide (human, UniProt P51654 25-563); test: competitive ELISA on plate-immobilized soluble GPC3 core polypeptide; competitor: biotinylated H0L0 antibody at 0.3 µg/mL
T4 construct: also called soluble GPC3 core protein; soluble glypican-3 core
Protocol: 100 μl of the polypeptide solution was added to each well of a 96-well plate. […] After 200 μl of blocking buffer was added, the plate was blocked at 4° C. overnight or longer. […] The plate was incubated at room temperature for one hour, and then washed five times with washing buffer using SkanWasher 400 (Molecular Devices). Goat anti-streptavidin alkaline phosphatase (Zymed) was 20,000-times diluted with substrate buffer and added to the plate at 100 μl/well. The plate was incubated at room temperature for one hour, and then washed five times with washing buffer using SkanWasher 400. The concentration of phosphatase substrate (Sigma) was adjusted to 1 mg/ml using the substrate buffer, and the solution was added to the plate at 100 μl/well. The plate was incubated for one hour.

[5] = target: T4, soluble GPC3 core polypeptide; test: competitive ELISA on plate-immobilized soluble GPC3 core polypeptide; competitor: biotinylated GPC3-H2L2 antibody at 0.3 µg/mL
Protocol: The binding activities of prepared antibodies were determined by competitive ELISA. […] The plates were incubated at 4° C. for 30 minutes or more for blocking. […] The plates were incubated at room temperature for one hour, and then washed five times with washing buffer using SkanWasher 400 (Molecular Devices). 100 μl of goat anti streptavidin alkaline phosphatase (Zymed) 20,000-times diluted with substrate buffer was added to each well. The plates were incubated at room temperature for one hour, and then washed five times with washing buffer using SkanWasher 400. Phosphatase Substrate (Sigma) was prepared at 1 mg/ml using substrate buffer, and added to each well (100 μl). The plates were incubated for one hour.

[6] = target: T3, soluble human FcRn (complex of FcRn and …); test: SPR (Biacore 3000), antibody captured on Protein L or anti-human kappa chain antibody, human FcRn as analyte, pH 6.0, steady state affinity; remark: listed apart in the source
Protocol: as §1, §2

T4 sequence (P51654 other isoform, or with tags, fused parts or gaps limits assumed): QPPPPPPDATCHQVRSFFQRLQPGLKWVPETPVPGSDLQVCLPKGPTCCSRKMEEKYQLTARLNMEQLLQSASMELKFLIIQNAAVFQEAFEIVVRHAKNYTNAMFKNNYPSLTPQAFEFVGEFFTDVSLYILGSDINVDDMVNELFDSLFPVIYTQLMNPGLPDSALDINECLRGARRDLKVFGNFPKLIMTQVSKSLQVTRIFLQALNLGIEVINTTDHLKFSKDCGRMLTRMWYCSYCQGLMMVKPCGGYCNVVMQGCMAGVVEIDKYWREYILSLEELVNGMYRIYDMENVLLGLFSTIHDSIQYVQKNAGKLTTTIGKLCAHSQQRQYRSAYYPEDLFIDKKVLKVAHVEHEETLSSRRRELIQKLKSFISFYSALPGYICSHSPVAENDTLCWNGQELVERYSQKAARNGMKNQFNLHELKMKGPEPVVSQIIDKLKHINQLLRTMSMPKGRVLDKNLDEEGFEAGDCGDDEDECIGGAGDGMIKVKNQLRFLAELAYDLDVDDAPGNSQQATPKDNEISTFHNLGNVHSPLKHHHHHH
T2 sequence (P08637 17-208 F176V limits assumed): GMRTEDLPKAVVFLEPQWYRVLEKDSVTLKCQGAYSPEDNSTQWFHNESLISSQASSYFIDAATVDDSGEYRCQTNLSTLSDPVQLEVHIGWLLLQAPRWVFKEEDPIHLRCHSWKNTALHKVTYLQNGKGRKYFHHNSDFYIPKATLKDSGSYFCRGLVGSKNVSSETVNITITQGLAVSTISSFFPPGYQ

binding result [1]: binds | binding result [2]: binds | Kd [3]: 1850 nM
B1: WT-M14ΔGK (antibody)
heavy: QVQLQESGPGLVRPSQTLSLTCTVSGYSITSDHAWSWVRQPPGRGLEWIGYISYSGITTYNPSLKSRVTMLRDTSKNQFSLRLSSVTAADTAVYYCARSLARTTAMDYWGQGSLVTVSSASTKGPSVFPLAPSSKSTSGGTAALGCLVKDYFPEPVTVSWNSGALTSGVHTFPAVLQSSGLYSLSSVVTVPSSNFGTQTYTCNVDHKPSNTKVDKTVERKSCVECPPCPAPPVAGPSVFLFPPKPKDTLMISRTPEVTCVVVDVSHEDPEVQFNWYVDGVEVHNAKTKPREEQFNSTFRVVSVLTVVHQDWLNGKEYKCKVSNKGLPSSIEKTISKAKGQPREPQVYTLPPSREEMTKNQVSLTCLVKGFYPSDIAVEWESNGQPENNYKTTPPVLDSDGSFFLYSKLTVDKSRWQQGNVFSCSVMHEALHNHYTQKSLSLSP
light: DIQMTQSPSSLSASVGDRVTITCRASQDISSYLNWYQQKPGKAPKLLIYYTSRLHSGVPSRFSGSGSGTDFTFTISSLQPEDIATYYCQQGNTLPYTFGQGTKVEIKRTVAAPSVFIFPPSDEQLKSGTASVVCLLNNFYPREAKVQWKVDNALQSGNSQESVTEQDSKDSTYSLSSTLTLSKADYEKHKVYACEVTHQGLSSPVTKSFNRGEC

binding result [4]: binds
B2: Hspu2.2Lspu2.2 antibody (antibody, V domains shown)
VH: QVQLVQSGAEVKKPGASVKVSCKASGYTFTDYEMHWIRQPPGKGLEWIGAINPKTGDTAYSQKFKGRVTLTADKSTSTAYMELSSLTSEDTAVYYCTRFYSYTYWGRGTLVTVSS
VL: DIVMTQSPLSLPVTPGQPASISCRASRSLVHSNRNTYLHWYQQKPGQAPRLLIYKVSNRFSGVPDRFSGSGSGTDFTLKISRVEAEDVGVYYCSQNTHVPPTFGRGTKLEIK
notes: Anti-glypican 3, raised isoelectric point; also called Hu2.2Lu2.2

binding result [5]: binds
B5: GPC3_H1L1 (antibody, human IgG1, kappa, V domains shown)
VH: QVQLVQSGAEVKKPGASVKVSCKASGYTFTDYEMHWIRQPPGKGLEWIGAINPKTGDTAYSQKFKGRVTLTADKSTSTAYMELSSLTSEDTAVYYCTRFYSYTYWGRGTLVTVSS
VL: DIVMTQSPLSLPVTPGQPASISCRASRSLVHSNRNTYLHWYQQKPGQAPRLLIYKVSNRFSGVPDRFSGSGSGTDFTLKISRVEAEDVGVYYCSQNTHVPPTFGRGTKLEIKR
notes: Anti-human GPC3 antibody

Kd [6]: 910 nM
B7: anti-IL-31 receptor antibody H0L0 with M58 constant region (antibody)
heavy: QVQLVQSGAEVKKPGASVKVSCKASGYTFTGYIMNWVRQAPGQGLEWMGLINPYNGGTSYNQKFKGRVTITADESTSTAYMELSSLRSEDTAVYYCARDGYDDGPYTMDYWGQGTLVTVSASTKGPSVFPLAPSSKSTSGGTAALGCLVKDYFPEPVTVSWNSGALTSGVHTFPAVLQSSGLYSLSSVVTVPSSNFGTQTYTCNVDHKPSNTKVDKTVERKSCVECPPCPAPPVAGPSVFLFPPKPKDTLMISRTPEVTCVVVDVSQEDPEVQFNWYVDGVEVHNAKTKPREEQFNSTFRVVSVLTVVHQDWLNGKEYKCKVSNKGLPAPIEKTISKTKGQPREPQVYTLPPSQEEMTKNQVSLTCLVKGFYPSDIAVEWESNGQPENNYKTTPPMLDSDGSFFLYSKLTVDKSRWQEGNVFSCSVMHEALHNHYTQKSLSLSP
VL: DIQMTQSPSSLSASVGDRVTITCRTSENIYSFLAWYQQKPGKAPKLLIYNAKTLAKGVPSRFSGSGSGTDFTLTISSLQPEDFATYYCQHHYESPLTFGGGTKVEIK
notes: also called H0L0 (M58)

Continued, binder first:

B3: GPC3_H2L2 (antibody, human IgG1, kappa, V domains shown)
VH: QVQLVQSGAEVKKPGASVKVSCKASGYTFTDYEMHWVRQAPGQGLEWMGALDPKTGDTAYSQKFKGRVTLTADKSTSTAYMELSSLTSEDTAVYYCTRFYSYTYWGQGTLVTVSS
VL: DVVMTQSPLSLPVTPGEPASISCRSSQSLVHSNRNTYLHWYLQKPGQSPQLLIYKVSNRFSGVPDRFSGSGSGTDFTLKISRVEAEDVGVYYCSQNTHVPPTFGQGTKLEIKR
IC50 (read off the curve) [5]: ~0.9 µg/mL

B4: GPC3_H3L3 (antibody, human IgG1, kappa, V domains shown)
VH: QVQLVQSGAEVKKPGASVTVSCKASGYTFTDYEMHWIRQPPGEGLEWIGAIDPKTGDTAYSESFQDRVTLTADKSTSTAYMELSSLTSEDTAVYYCTRFYSYTYWGQGTLVTVSS
VL: DIVMTQSPLSLPVTPGEPASISCQASESLVHSNRNTYLHWYLQKPGQSPQLLIYKVSNRFSGVPDRFSGSGSGTDFTLKISRVEAEDVGVYYCSQNTHVPPTFGQGTKVEIER
IC50 (read off the curve) [5]: ~0.9 µg/mL

B6: anti-IL-31 receptor antibody H0L0 with IgG1 constant region (antibody)
heavy: not shown
VL: DIQMTQSPSSLSASVGDRVTITCRTSENIYSFLAWYQQKPGKAPKLLIYNAKTLAKGVPSRFSGSGSGTDFTLTISSLQPEDFATYYCQHHYESPLTFGGGTKVEIK
notes: Not the anti-glypican 3 antibody of the same name; also called H0L0 (IgG1)
Kd [6]: 1070 nM
